Source: patent US20090111769A1, “Antithrombotic Compound” (priority 2005, published 2009)
Counter-ions that a name gives are not always drawn.

Columns and labels:
[1] = Pharmacokinetics after s.c. administration in rat (plasma concentration by anti-Xa activity); type: in vivo, male Wistar rats; conditions: male, Wistar, sc, 500 nmol/kg
Procedure: The pharmacokinetic properties of compound 3 were studied in male Wistar rats of 300-400 gr. The rats were anaesthetized by inhalation of a mixture of O2/N2O/isoflurane, after which the right jugular vein was cannulated. The next day rats were treated s.c. with doses of 100 or 500 nmol/kg. After s.c. administration, blood was sampled at several time intervals. Then the blood was centrifuged after which the plasma was siphoned off and stored at −20° C. until use. The concentration of the tested compound was measured amidolytically with S2222 (Chromogenix, Chromogenics Ltd, Molndal, Sweden) by determination of the anti-Xa activity based on the method of Teien and Lie in the obtained plasma samples against a calibration curve which was made of the stock solution of the tested compound itself. (Teien A N, Lie M. Evaluation of an amidolytic heparin assay method increased sensitivity by adding purified antithrombin III. Thromb. Res. 1977, 10: 399-410). The concentration in the samples was expressed in nmol/mL and the kinetic parameters were calculated with the noncompartment model of WinNonlin.

[2] = tested on: human platelet aggregation induced by ADP; assay: In vitro test for inhibition of human platelet aggregation induced by ADP (platelet rich plasma); type: cell-based; conditions: read-out: IC50, inhibition of human platelet aggregation induced by 5 μM ADP
Procedure: • 1. Sysmex blood cell counter model KX-21. • 2. […] Absorption is measured with the Labsystems iEMS program. • 3. Blood collection system 600 mL with needle, art P4203 (NPBI). • 4.
The optical density (OD620) is then measured at 620 nm. […] This is to verify the stability of the platelets (absence of spontaneous platelet aggregation). […] Between two measurements, the plate is shaking for 40 seconds at 1,000 rpm. Each test compound is investigated in at least 2 experiments using PRP from different volunteers.
The mean OD at each compound concentration (including vehicle) is calculated at t=0 min and t=10 min. The percentage inhibition at each concentration is calculated using the formula: […]

[3] = tested on: human platelet aggregation induced by TRAP; assay: In vitro test for inhibition of human platelet aggregation induced by TRAP (washed platelets); type: cell-based; conditions: read-out: IC50, inhibition of human platelet aggregation induced by 5 μM TRAP
Procedure: This aggregation can be determined by measuring the optical density of the WPL. The in vitro test described here is used to analyze the activity of a test compound to inhibit TRAP-induced aggregation of human platelets. […] Between two measurements, the plate is shaking for 40 seconds at 1,000 rpm.

Compound	Tmax ([1]; n = 3) [h]	AUC(0-inf) ([1]; n = 3, mean ± s.e.m.) [µM·h]	Cmax ([1]; n = 3, mean ± s.e.m.) [µM]	half-life ([1]; n = 3, mean ± s.e.m., read-out: T½ eli (converted)) [h]	IC50 [2] [nM]	IC50 [3] [nM]
CO[C@H]1O[C@H](COS(=O)(=O)O)[C@@H](O[C@@H]2O[C@@H](C(=O)O)[C@@H](O[C@H]3O[C@H](COS(=O)(=O)O)[C@@H](O[C@@H]4O[C@H](C(=O)O)[C@@H](O[C@H]5O[C@H](COS(=O)(=O)O)[C@@H](OCCOCCOCCOCCNC(=O)COCCOCCOCCOCCNC(=O)c6cccc(S(=O)(=O)N[C@@H](Cc7ccc(OCCCCC8CCNCC8)cc7)C(=O)O)c6)[C@H](OC)[C@H]5OC)[C@H](OC)[C@H]4OC)[C@H](OS(=O)(=O)O)[C@H]3OS(=O)(=O)O)[C@H](OC)[C@H]2OC)[C@H](OS(=O)(=O)O)[C@H]1OS(=O)(=O)O [Compound 3, sodium salt]	2.5	75.3 ± 3.2	5 ± 0.4	9.3 ± 0.2	–	–
CCCCS(=O)(=O)N[C@@H](Cc1ccc(OCCCCC2CCNCC2)cc1)C(=O)O [tirofiban]	–	–	–	–	30 to 60	30 to 60
